In publication PMC3760192:

Columns and labels:
Test in all cases: AFM force spectroscopy
MBP-CBD protein = biological target: MBP-CBD protein
[1] = biological target: MBP-I^N of the Nostoc species PCC7120 (Nsp) split intein (Nostoc species PCC7120)
[2] = biological target: MBP-I^N of the Oscillatoria limnetica (Oli) split intein (Oscillatoria limnetica)
[3] = biological target: MBP-I^N of the Thermosynechococcus vulcanus (Tvu) split intein (Thermosynechococcus vulcanus)

Substance | Fad (adhesion force) (MBP-CBD protein) [pN] | Fad (adhesion force, mode of the lognormal distribution) [1] [pN] | Fad (adhesion force, mode of the lognormal distribution) [2] [pN] | Fad (adhesion force, mode of the lognormal distribution) [3] [pN]
MBP-I^C-CBD of the Nostoc species PCC7120 (Nsp) split intein | < 30 | – | – | –
MBP-I^C-CBD of the Oscillatoria limnetica (Oli) split intein | < 30 | – | – | –
MBP-I^C-CBD of the Thermosynechococcus vulcanus (Tvu) split intein | < 30 | – | – | –
cleaved CBD-I^C of the Nostoc species PCC7120 (Nsp) split intein (domain or fragment) | – | 52 | 60 | 52
cleaved CBD-I^C of the Oscillatoria limnetica (Oli) split intein (domain or fragment) | – | 52 | 52 | 52
cleaved CBD-I^C of the Thermosynechococcus vulcanus (Tvu) split intein (domain or fragment) | – | 49 | 52 | 53
